In test [1] the target is Rad52 (295-408) (S. cerevisiae). As to the kind of experiment: SEC-SAXS. For orientation: In gel filtration, larger molecules generally elute earlier.
Test [2] has as its target Rad51 (in yeast cells) (S. cerevisiae) (UniProt P25454). As to the kind of experiment: co-IP.
Test [3] has as its target T1, Rad51 (full length, recombinant) (S. cerevisiae), P25454.
T1 chain: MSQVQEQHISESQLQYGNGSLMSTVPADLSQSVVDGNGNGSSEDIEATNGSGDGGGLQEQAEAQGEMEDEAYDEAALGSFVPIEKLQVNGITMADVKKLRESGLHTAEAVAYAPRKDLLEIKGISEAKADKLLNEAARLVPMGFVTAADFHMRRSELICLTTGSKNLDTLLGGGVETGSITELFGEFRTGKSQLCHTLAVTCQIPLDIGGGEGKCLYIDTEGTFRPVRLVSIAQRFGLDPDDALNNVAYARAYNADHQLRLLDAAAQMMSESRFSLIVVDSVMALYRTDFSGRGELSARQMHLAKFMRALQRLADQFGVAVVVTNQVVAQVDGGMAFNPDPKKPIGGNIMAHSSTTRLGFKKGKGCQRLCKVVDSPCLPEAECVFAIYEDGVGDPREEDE
As to the kind of experiment: SEC-SAXS. To be noted: remark: other sources report otherwise.

Usually stoichiometry N stands for a count of units in the complex or per binding partner. In test [1], “Rad51 (full length, recombinant) (from UniProt P25454 1-400) (natural protein)” displayed a stoichiometry N of 1. As to Rad52-K340E-FLAG (natural protein), the loss of interaction (%) against WT Rad52 in test [2] turned out to be 30%. Same read-out and setting: under Rad52-T349A-FLAG (natural protein) stands 85%.

B1: Rad51 (full length, recombinant), P25454 1-400 (natural protein)
chain: T1 chain
Take B1: the stoichiometry N in test [3] amounted to 4.
